Data as given in patent publication US20180214548A1 (SHANGHAI YUNYI HEALTHCARE AND TECHNOLOGY, published 2018).

How the values were obtained:
[1] = molecular target: T1, full length human PD-1 on cells (human, UniProt Q15116 25-288); test: flow cytometry, CHO-K1-hPD-1 cells; antibody 0.316 nM
T1 construct: Also used here for PD-1 on human T cells/PBMC; also called CHO-K1-hPD-1; hPD-1
Excerpt: (§1) CHO-K1 cells were stably transfected with pIRES plasmid containing the nucleic acid sequence encoding full length human PD-1 (see Example 2, step 2) to generate CHO-K1 cells stably expressing human PD-1 (herein referred to as CHO-K1-hPD-1 cells). Other CHO-K1 were stably transfected with pIRES plasmid containing the nucleic acid sequence encoding full length cyno PD-1 to generate CHO-K1 cells stably expressing cyno PD-1 (herein referred to as CHO-K1-cPD-1 cells). CHO-K1-hPD-1 and CHO-K1-cPD-1 cells were cultured and expanded in T-75 culture flasks to 90% confluence. The culture media was aspirated, and the cells were washed twice with HBSS (Hanks Balanced Salt Solution, Invitrogen). The cells were treated with enzyme-free cell dissociation solution (Versene solution, Invitrogen) and collected. The cells were then washed twice with HBSS, cell counts were determined, and cells were resuspended with HBSS at 2×10⁶ cells/mL. Goat serum was added to the cell suspension to a final concentration of 1%, and the cells were blocked for 30 minutes on ice and then washed twice with HBSS. The cells were collected after centrifugation and resuspended in FACS buffer (HBSS+1% BSA, v/v) at 2×10⁶ cells/mL. 100 uL of the cell suspension were then added to each well of 96-well plate. 100 uL of purified anti-PD-1 antibodies from Example 2 were added to each well of the 96-well plate and incubated for 2 hours on ice. […] The samples were washed three times with FACS buffer, and 100 uL fixation buffer (4% paraformaldehyde v/v) were added to each well and incubated for 10 minutes. The cells were then washed twice with FACS buffer and resuspended in 100 uL FACS buffer. The mean fluorescence intensity (MFI) was determined using FACS Calibur (BD), and the results are shown in FIGS. 7-8 and in Tables 10-11.

[2] = molecular target: T1, full length human PD-1 on cells; test: flow cytometry, CHO-K1-hPD-1 cells; antibody 1 nM
Excerpt: as §1

[3] = molecular target: T1, full length human PD-1 on cells; test: flow cytometry, CHO-K1-hPD-1 cells; antibody 0.0316 nM
Excerpt: as §1

[4] = molecular target: T1, full length human PD-1 on cells; test: flow cytometry, CHO-K1-hPD-1 cells; antibody 31.6 nM
Excerpt: as §1

[5] = molecular target: T1, full length human PD-1 on cells; test: flow cytometry, CHO-K1-hPD-1 cells; antibody 3.16 nM
Excerpt: as §1

[6] = molecular target: T1, full length human PD-1 on cells; test: cell-based receptor-ligand blocking, flow cytometry: CHO-K1-hPD-1 cells, blocked ligand biotinylated PD-L2-Fc, streptavidin-Alexa 488
Method: CHO-K1-hPD-1 cells were cultured and expanded in T-75 culture flasks to 60-80% confluence. The culture media was aspirated, and the cells were washed twice with PBS. The cells were treated with TrypLE™ Express (Invitrogen) and collected. Trypsin was neutralized by the addition of 8 mL culture medium, and cell counts were determined. […] The cells were blocked for 15 minutes at 37° C. Meanwhile, the wells of 96-well round-bottom plates were blocked with 200 uL blocking buffer for 1 hour at 37° C. The blocking buffer was discarded, and 200 uL cells were dispensed to each well of the 96-well plates (2×10^5 cells/well). The plates were centrifuged at 500 g for 5 minutes, and the supernatants were discarded. The cells were resuspended in 100 uL antibody prepared in blocking buffer. […] The plates were incubated at 4° C. for 90 minutes and washed twice with 200 uL blocking buffer. […] The plates were washed three times with blocking buffer and resuspended in 200 uL blocking buffer. The mean fluorescence intensity (MFI) was determined using FACS Calibur (BD).

[7] = molecular target: T2, human PD-1^ECD-hFc protein (Immunogen A) (human, UniProt Q15116 25-167); test: ELISA, coated human PD-1ECD-hFc; antibody 0.001 nM
T2 construct: Biotinylated for the Octet assay; also called PD-1-hFc; hPD-1^ECD-hFc; not shown: human IgG Fc fragment (hFc)
Method: (§2) 100 uL of the diluted recombinant proteins were added to each well of 96-well plate. The plates were sealed with plastic film and incubated at 4° C. overnight. The plates were washed twice with wash buffer (PBS+0.01% (v/v) Tween20), and incubated with blocking buffer (PBS+0.01% (v/v) Tween20+1% (w/w) BSA) at room temperature for 2 hours. The blocking buffer was aspirated away, and 100 uL of purified anti-PD-1 antibodies were added to each well and incubated for 2 hours at 37° C. The plates were washed three times with wash buffer (PBS+0.01% (v/v) Tween20). HRP-conjugated secondary antibody (Sigma) was added to each well and incubated for 2 hours at 37° C. After the plates were washed three times with wash buffer, 100 uL TMB substrate was added to each well and incubated for 30 minutes at room temperature. 100 uL stop solution (0.1N HCl) was added to each well to stop the reaction. The absorbance at 450 nm was measured with an ELISA plate reader (384plus SpectraMax, Molecular Devices).

[8] = molecular target: T2, human PD-1^ECD-hFc protein (Immunogen A); test: ELISA, coated human PD-1ECD-hFc; antibody 0.0001 nM
Method: as §2

[9] = molecular target: T2, human PD-1^ECD-hFc protein (Immunogen A); test: ELISA, coated human PD-1ECD-hFc; antibody 0.00001 nM
Method: as §2

T1 sequence (Q15116 25-288 limits assumed): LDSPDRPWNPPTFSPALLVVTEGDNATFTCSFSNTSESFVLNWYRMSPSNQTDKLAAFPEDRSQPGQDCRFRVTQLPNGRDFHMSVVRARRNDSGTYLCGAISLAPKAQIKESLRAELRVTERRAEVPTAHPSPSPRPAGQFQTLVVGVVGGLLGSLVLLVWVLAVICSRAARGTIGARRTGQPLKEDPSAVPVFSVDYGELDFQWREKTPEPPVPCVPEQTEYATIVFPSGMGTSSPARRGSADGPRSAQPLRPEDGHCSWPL
T2 sequence (Q15116 25-167): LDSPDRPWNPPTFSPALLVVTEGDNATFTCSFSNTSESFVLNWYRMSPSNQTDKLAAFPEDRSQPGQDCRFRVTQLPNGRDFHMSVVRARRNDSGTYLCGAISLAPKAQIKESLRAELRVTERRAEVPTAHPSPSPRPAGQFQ

Mean fluorescence intensity [1]	Mean fluorescence intensity [2]	Mean fluorescence intensity [3]	Mean fluorescence intensity [4]	Mean fluorescence intensity [5]	IC50 (read off the curve) [6]	OD450 nm [7]	OD450 nm [8]	OD450 nm [9]	Binder
26.1	51.1	2.1	241	97.5					chimeric anti-PD-1 antibody 32B5C7 (antibody, V domains shown, Purified from hybridoma of Harbour H2L2 mice: human variable regions, rat constant regions) VH: EVQLLESGGGLVQPGGSLRLSCAASGFTFSSYAMSWVRQAPGKGLEWVSTISGSGGTTYYADSVKGRFTISRDNSKNTLYLQMNSLRAEDTAVYYCTLTGDPDYWGQGTLVTVSS VL: EIVLTQSPATLSLSPGERATLSCRASQSVSSYLAWYQQKPGQAPRLLIYDASKRATGIPARFSGSGSGTDFTLTISSLEPEDFAVYYCQQRNNWPLTFGGGTKVEIK
76.8	166	2.2	466	280	~2 nM				chimeric anti-PD-1 antibody 76G5B3 (antibody, V domains shown, Purified from hybridoma of Harbour H2L2 mice: human variable regions, rat constant regions) VH: QVQLVESGGGVVQPGRSLRLSCAASGFTFSDYGFHWVRQAPGKGLEWVAVIWYDGSNEYYTDSVKGRFTISRDNSKNTLYLQMNSLRAEDTAMYFCVVNPFDYWGQGTLVTVSS VL: DIQMTQSPSSLSAFVGDRVTITCRASQGINHYLAWYQQKPGKAPNLLILAASTLLSGVPSRFGGRGSGTDFTLIISSLQPEDVATYYCQKYDSAPYTFGQGTKLEIK
	166					0.468	0.433	0.405	chimeric anti-PD-1 antibody 21G8F11 (antibody, V domains shown, Purified from hybridoma of Harbour H2L2 mice: human variable regions, rat constant regions) VH: EVQLLESGGGLAQPGGSLRLSCAASGFSFNTYLMHWVRQAPGKGLEWVSAISGGGGNTYYADSVKGRFTISRDNSKNTLYLQMNSLRAEDTAVYYCAKENRIPVAPFDYWGQGTLVTVSS VL: DIQMTQSPSTLSASVGDRVTITCRASQSISTWLAWYQQKPGKAPKLLIYKASSLESGVPSRFSGSGSGTEFTLTISSLQPDDLATYYCQQYNSFSWTFGQGTKVEIK
